# Measured values taken from US5501962, “Interleuken-3 (IL-3) human/murine hybrid polypeptides and recombinant production of the same” (G. D. Searle & Co., dated 1996).
# Numbering of substitutions follows the chain as printed.
# T1: IL-3 receptor (human, UniProt P26951)
# T1 sequence: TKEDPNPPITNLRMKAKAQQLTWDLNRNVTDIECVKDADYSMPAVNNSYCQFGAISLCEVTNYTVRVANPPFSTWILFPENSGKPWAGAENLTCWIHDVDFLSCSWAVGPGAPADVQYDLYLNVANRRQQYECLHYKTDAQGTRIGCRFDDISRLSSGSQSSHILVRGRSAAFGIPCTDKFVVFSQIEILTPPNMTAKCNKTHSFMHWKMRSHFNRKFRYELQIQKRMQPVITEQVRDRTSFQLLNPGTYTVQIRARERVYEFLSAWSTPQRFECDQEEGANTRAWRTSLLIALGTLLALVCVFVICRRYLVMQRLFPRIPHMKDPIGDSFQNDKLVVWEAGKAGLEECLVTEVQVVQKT
# B1: pMON5963 (Met-15-125hIL-3 Ala 101) having an M9 substitution (ligand)
# chain: MNCSNMIDEIITHLKQPPLPLLDFNNLNGEDQDILMENNLRRPNLEAFNRAVKSLQNASAIKSNLQKLNSCLPLATAAPTRHPIHIKAGDWNEFRRKLTFYLKTLENAQAQQ
# B2: pMON5968 (Met-15-125hIL-3) having an M13 substitution (ligand)
# chain: MNCSNMIDEIITHLKQPPLPLLDFNNLNGEDQDILMENNLRRPNLEAFNRAVKSLQNASAIESILKNLLPCLPLATAAPTRHPIHIKDLDEFRRKLTFYLKTLENAQAQQ
# B3: pMON5977 (Met-15-125hIL-3) having an M3 substitution (ligand)
# chain: MNCSNMIDEIITHLKQPPLPLLEPELKNGEDQDILMENNLRRPNLEAFNRAVKSLQNASAIESILKNLLPCLPLATAAPTRHPIHIKDGDWNEFRRKLTFYLKTLENAQAQQ
# B4: pMON5962 (Met-15-125hIL-3) having an M10 substitution (ligand)
# chain: B3 chain with E23D, P24F, E25N, L26N, K27L, L74T, A75S, T76A, A77N, A78D
# B5: pMON5970 (Met-15-125hIL-3) having an M5 substitution (ligand)
# chain: B3 chain with E23D, P24F, E25N, L26N, K27L, I34S, M36R, E37N, N38K, N39S
# B6: pMON5975 (Met-15-125hIL-3) having an M4 substitution (ligand)
# chain: MNCSNMIDEIITHLKQPPLPLLDFNNLTDDEGPILMENNLRRPNLEAFNRAVKSLQNASAIESILKNLLPCLPLATAAPTRHPIHIKDGDWNEFRRKLTFYLKTLENAQAQQ
# B7: pMON5972 (Met-15-125hIL-3) having an M6 substitution (ligand)
# chain: MNCSNMIDEIITHLKQPPLPLLDFNNLNGEDQDILMENNFRRVNLSKFVEAVKSLQNASAIESILKNLLPCLPLATAAPTRHPIHIKDGDWNEFRRKLTFYLKTLENAQAQQ
# B8: pMON5961 (Met-15-125hIL-3) having an M12 substitution (ligand)
# chain: B3 chain with E23D, P24F, E25N, L26N, K27L, P83G, I84V, H85F, K87R
# B9: pMON5960 (Met-15-125hIL-3) having an M11 substitution (ligand)
# chain: B3 chain with E23D, P24F, E25N, L26N, K27L, P79S, T80A, R81L, H82P
# B10: pMON5974 (Met-15-125hIL-3 del aa29-35) having the M2 deletion shown in FIG. 19 (ligand)
# chain: MNCSNMIDEIITHLKDFNNLNGEDQDILMENNLRRPNLEAFNRAVKSLQNASAIESILKNLLPCLPLATAAPTRHPIHIKDGDWNEFRRKLTFYLKTLENAQAQQ
# B11: pMON5979 (Met-15-125hIL-3 ALA 101) having an M8 substitution (ligand)
# chain: MNCSNMIDEIITHLKQPPLPLLDFNNLNGEDQDILMENNLRRPNLEAFNRAVKSLQPEDRYVIESILKNLLPCLPLATAAPTRHPIHIKAGDWNEFRRKLTFYLKTLENAQAQQ
# B12: (1-133)hIL-3 (ligand)
# chain: APMTQTTSLKTSWVNCSNMIDEIITHLKQPPLPLLDFNNLNGEDQDILMENNLRRPNLEAFNRAVKSLQNASAIESILKNLLPCLPLATAAPTRHPIHIKDGDWNEFRRKLTFYLKTLENAQAQQTTLSLAIF
# B13: pMON5980 (Met-Ala-15-125hIL-3) having an M1 substitution (ligand)
# chain: MANCSSIVKEIIGKLPQPPLPLLDFNNLNGEDQDILMENNLRRPNLEAFNRAVKSLQNASAIESILKNLLPCLPLATAAPTRHPIHIKDGDWNEFRRKLTFYLKTLENAQAQQ
# B14: pMON5973 (Met-15-125hIL-3) having an M7 substitution (ligand)
# chain: MNCSNMIDEIITHLKQPPLPLLDFNNLNGEDQDILMENNLRRPNLEAFNRSQGEVDNASAIESILKNLLPCLPLATAAPTRHPIHIKDGDWNEFRRKLTFYLKTLENAQAQQ
# Target: IL-3 receptor (human) (UniProt P26951)
# Test: not given
"Growth Factor Activity (AML 193 1.3 proliferation, 3H-thymidine; Relative Biological Activity) (relative to native hIL-3)",Leukotriene Stimulating Activity (IL-3 mediated sulfidoleukotriene release from human mononuclear cells; Relative Biological Activity) (relative to native hIL-3),Binder
5.01,12.9,B1
0.06,0.59,B2
3.98,0.31,B3
1.26,10.7,B4
0.04,< 0.01,B5
0.04,< 0.01,B6
0.2,0.15,B7
0.5,3.63,B8
0.13,0.1,B9
0.08,< 0.01,B10
7.94,0.46,B11
1,1,B12
0.03,< 0.01,B13

# Target: T1, IL-3 receptor
# Test: cell-based or functional assay
"Growth Factor Activity (AML 193 1.3 proliferation, 3H-thymidine; Relative Biological Activity)",Leukotriene Stimulating Activity (IL-3 mediated sulfidoleukotriene release from human mononuclear cells; Relative Biological Activity),Binder
0.2 relative to native hIL-3,≤ 0.01 relative to native hIL-3,B14

# Target: IL-3 receptor (human) (UniProt P26951)
# Test: competition with iodinated hIL-3 ligand (pMON 5966) on AML 193 1.3.9 cells
row,IL-3 Receptor Binding Activity (relative to native hIL-3) (relative to native hIL-3),Binder
1,1.32,B1
2,0.19,B3
3,0.81,B4
4,< 0.01,B5
5,< 0.01,B6
6,0.08,B7
7,1.05,B8
8,< 0.01,B9
9,< 0.01,B13

# Target: T1, IL-3 receptor
# Test: as above
# Procedure: These cells were further selected using biotin conjugated hIL-3 and FITC-avidin for repetitive fluorescence activated cell sorting (FACS) and were designated AML 193 1.3.9. This line was grown in IMDM supplemented with 5% FBS and 40 μM beta-mercaptoethanol and human IL-3 (1 to 4 ng/mL). The HL-60 cell line was obtained from ATCC and grown in RPMI 1640, 10% FBS and 40 μM beta-mercaptoethanol. Ligand for IL-3 receptor assays was derived from an E. coli expression vector encoding full length hIL-3 molecule (amino acids 1 to 133) having a 14 amino acid N-terminal extension. ([…][SEQ ID NO: 119]; designated as pMON 5966, est. MW 16,976). This construct contained two additional tyrosines which were essential for iodination to high-specific radioactivity without loss of biological activity. This ligand was radiolabeled with iodine-125 using an insoluble lactoperoxidase method (®Enzymobeads) and used following HPLC purification. […] Ligand for GM-CSF receptor assays was prepared by radiolabelling native GM-CSF with iodine-125 using the IODO-GEN method (Pierce Chemical) according to manufacturer's specifications.
# For IL-3 receptor assays, AML 193 1.3.9 cells were incubated overnight in medium without growth factor. On the day of the assay the cells were washed 3 times with Hanks balanced salt solution, resuspended in assay buffer (IMDM, 5% FBS, 40 μM 2-ME and 0.1% BSA) and counted using a hemacytometer. Assay tubes contained the test compounds or inhibitors under study, 0.2% sodium azide, iodinated hIL-3 ligand (pMON 5966), 5–10×10^6 cells, and buffer in a total volume of 100 μL. Unlabelled hIL-3 (250 nM) was used to define non-specific binding, and each assay point was set up in triplicate. After incubation with gentle orbital agitation at 200 rpm for two hours at room temperature, 1 mL of ice-cold medium was added and the binding reaction was immediately terminated by centrifugation. The supernatant was removed by aspiration, and the tip of the tube containing the cell pellet was cut off and counted in a Micromedic gamma counter.
IL-3 Receptor Binding Activity (relative to native hIL-3),binding result,Binder
0.25 relative to native hIL-3,,B2
≤ 0.01 relative to native hIL-3,no binding,B10
1.21 relative to native hIL-3,,B11

# Target: IL-3 receptor (human) (UniProt P26951)
# Test: competition with iodinated hIL-3 ligand (pMON 5966) on AML 193 1.3.9 cells; this is the reference itself
row,IL-3 Receptor Binding Activity (relative to native hIL-3) (relative to native hIL-3),Binder
1,1,B12
